In one assay the target is T1, human Ang2-RBD-muFc (human, UniProt O15123 275-496, limits assumed).
T1 construct: also called Human ANG2 (KinExA); not shown: murine Fc (muFc)
T1 sequence: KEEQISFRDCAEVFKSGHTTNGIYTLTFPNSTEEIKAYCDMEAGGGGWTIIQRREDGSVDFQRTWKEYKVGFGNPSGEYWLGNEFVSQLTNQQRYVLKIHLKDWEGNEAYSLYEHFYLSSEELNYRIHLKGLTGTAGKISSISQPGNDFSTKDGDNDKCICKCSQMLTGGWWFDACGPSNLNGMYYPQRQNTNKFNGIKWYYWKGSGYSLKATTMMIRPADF
The experiment in a line: KinExA, human ANG2 (Ang2-RBD-muFc) by the table's title; the column's head prints VEGFA-121. As for the experimental part: All KinExA® experiments were performed at room temperature (RT) using PBS pH 7.4 with 0.01% BSA and 0.01% Tween® 20 (BioRad, #161-0781) as running buffer. […] A flow rate of 0.25 ml/min was used. A constant amount of Ang2-RBD-muFc (50 pM and in a second experiment 500 pM) was titrated with tested antibody by twofold serial dilution starting at 4 nM (concentration range 1.95 pM-4000 pM). Antigen-antibody complexes were incubated at RT for at least 8 h to allow equilibrium to be reached. Equilibrated mixtures were then drawn through a column of Anti-Ang2 antibody (MAB098) coupled beads in the KinExA® system at a volume of 750 μl for 50 pM constant Ang2 and at a volume of 188 μl for 500 pM constant Ang2 permitting unbound Ang2 to be captured by the beads without perturbing the equilibrium state of the solution. Bound Ang2 was detected using a second biotinylated anti-Ang2 antibody (BAM0981) with a concentration of 250 ng/ml and following by an injection of 250 ng/ml Streptavidin Alexa Fluor™ 647 conjugate in sample buffer. Each sample was measured in duplicates for all equilibrium experiments. The KD was obtained from non-linear regression analysis of the data using a one-site homogeneous binding model contained within the KinExA® software (Version 4.0.11) using the “standard analysis” method. […]
(Kinetic exclusion samples the free partner from a solution-phase mixture.)

In another assay the target is T2, ANG2 (human, UniProt O15123 19-496, limits assumed).
T2 sequence: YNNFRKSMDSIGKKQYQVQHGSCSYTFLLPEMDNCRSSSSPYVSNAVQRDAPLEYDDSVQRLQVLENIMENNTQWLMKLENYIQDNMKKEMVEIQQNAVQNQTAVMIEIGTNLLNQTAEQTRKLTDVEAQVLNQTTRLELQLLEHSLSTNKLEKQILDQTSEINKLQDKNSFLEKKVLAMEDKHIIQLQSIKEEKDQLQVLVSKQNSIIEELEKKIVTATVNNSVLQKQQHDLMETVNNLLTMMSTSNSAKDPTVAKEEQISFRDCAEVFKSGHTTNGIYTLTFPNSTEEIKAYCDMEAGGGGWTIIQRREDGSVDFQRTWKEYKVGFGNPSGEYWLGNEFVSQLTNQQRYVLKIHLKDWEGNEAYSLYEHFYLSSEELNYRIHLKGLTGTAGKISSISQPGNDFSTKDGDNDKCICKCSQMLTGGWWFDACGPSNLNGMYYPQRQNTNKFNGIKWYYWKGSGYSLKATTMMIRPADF
The experiment in a line: cell-based or functional assay.

The values below come from US20220073599A1 (Hoffmann-La Roche, published 2022).

B1: Nesvacumab-analogue (antibody, human IgG1, kappa, L234A L235A, V domains shown)
VH: AVQLVASGGGLVQPGGSLRLSCAASGFTFSSYDIHWVRQATGKGLEWVSAIGPAGDTYYPGSVKGRFTISRENAKNSLYLQMNSLRAGDTAVYYCARGLITFGGLIAPFDYWGQGTLVTVSS
VL: IVLTQSPGTLSLSPGERATLSCRASQSVSSTYLAWYQQKPGQAPRLLIYGASSRATGIPDRFSGSGSGTDFTLTISRLEPEDFAVYYCQHYDNSQTFGQGTKVEIKR
notes: also called Nesvacumab (INN); Nesvacumab Mab
In the assay with human Ang2-RBD-muFc, B1 showed a Kd of 10 pM. Moreover, the “IC50, pTie2-Assay (Tie2 phosphorylation in Hek293 cells expressing Tie2, stimulated with Ang-2)” value with ANG2 was 6 nM.

The term Kd denotes the constant that tells how readily two partners part at equilibrium.
